B1: mouse AGR2 (21-175), wild-type [mouse] / MBP-hIRE1b_LD_(35-428)-AviTag-His7 [modified: biotin on the AviTag (endogenous biotinylation of a fraction of the protein in E. coli); biotin on the AviTag (endogenous biotinylation of a fraction of … (parent complex)
chain 1: KDTTVKSGAKKDPKDSRPKLPQTLSRGWGDQLIWTQTYEEALYRSKTSNRPLMVIHHLDECPHSQALKKVFAEHKEIQKLAEQFVLLNLVYETTDKHLSPDGQYVPRIVFVDPSLTVRADITGRYSNRLYAYEPSDTALLYDNMKKALKLLKTEL
chain 2: LRPENLLLVSTLDGSLHALSKQTGDLKWTLRDDPVIEGPMYVTEMAFLSDPADGSLYILGTQKQQGLMKLPFTIPELVHASPCRSSDGVFYTGRKQDAWFVVDPESGETQMTLTTEGPSTPRLYIGRTQYTVTMHDPRAPALRWNTTYRRYSAPPMDGSPGKYMSHLASCGMGLLLTVDPGSGTVLWTQDLGVPVMGVYTWHQDGLRQLPHLTLARDTLHFLALRWGHIRLPASGPRDTATLFSTLDTQLLMTLYVGKDETGFYVSKALVHTGVALVPRGLTLAPADGPTTDEVTLQVSGEREGSPSTAVRYPSGSVALPSQWLLIGHHELPPVLHTTMLRVHPTLGSGTAETRPPENTQAPAFFLELLSLSREKLWDSELHPEEKTPDSYLGL

The first experiment covers variants of B1. Briefly: BLI; HK buffer supplemented with 0.05% Triton X-100 and 1 mM TCEP; 30 °C; IRE1β LD probe immobilised on streptavidin biosensors; parent: 19 nM.
With chain 1 C61E, the screen value came to 78.5 µM.

For the variant chain 1 C61S, the screen value was 124 µM.

Another experiment covers variants of B1. The experiment is described as follows: BLI; 90 µM AGR2 variant (highest concentration point); HK buffer supplemented with 0.05% Triton X-100 and 1 mM TCEP; 30 °C; parent: 0.6; read off a plot.
In the case of chain 1 C61E, the response was ~0.23 nm.

Consider chain 1 C61S, for which the response was ~0.3 nm.

Source of the values: PMC10907699, “The IRE1β-mediated unfolded protein response is repressed by the chaperone AGR2 in mucin producing cells” (The EMBO Journal, 2023).
